Biological target: human thrombopoietin receptor (hTPOR, genetic name MPL), on cells (human) (UniProt P40238)
Test: cell-based or functional assay

recombinant human thrombopoietin (rhTPO) (from UniProt P40225 22-353) (ligand)
EC50 of cell proliferation of BaF3/MPL cells: 1.3 ng/mL

— US20240010736A1
